The target in test [1] is T1, His6-cdc42-302 (V36A F37A) (S. cerevisiae, UniProt P19073 1-191, V36A | F37A).
T1 construct: Cdc42, S. cerevisiae, with V36A and F37A; source: bacteria, purified (Hisx6 fusion)
The experiment in a line: pull-down; GST-Gic2N (a.a.1–155) on glutathione Sepharose (20 μg), His6-Cdc42 or mutant (10 μg) in the presence of GTPγS; bound protein detected with anti-Hisx6 antibody. The note with it: both partners purified.

The target in a further test is T2, His6-Cdc42 (S. cerevisiae, UniProt P19073 1-191).
T2 construct: Cdc42, small GTPase, S. cerevisiae; also called Hisx6-Cdc42; Cdc42 wild type; source: bacteria, purified (Hisx6 fusion)
T2 sequence (P19073 whole entry, the tested form may be a part): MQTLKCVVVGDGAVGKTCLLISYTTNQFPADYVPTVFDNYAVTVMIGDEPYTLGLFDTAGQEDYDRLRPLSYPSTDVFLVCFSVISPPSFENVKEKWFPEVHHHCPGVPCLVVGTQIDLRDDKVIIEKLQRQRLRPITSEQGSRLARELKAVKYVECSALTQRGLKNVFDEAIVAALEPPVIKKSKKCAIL
The description is as above. Conditions: both partners purified.

This note sets out measurements from publication PMC6449940, “The Cdc42 effectors Gic1 and Gic2 regulate polarized post-Golgi secretion” (Cell & Bioscience, 2019).

T1 sequence (P19073 whole entry V36A/F37A, the tested form may be a part): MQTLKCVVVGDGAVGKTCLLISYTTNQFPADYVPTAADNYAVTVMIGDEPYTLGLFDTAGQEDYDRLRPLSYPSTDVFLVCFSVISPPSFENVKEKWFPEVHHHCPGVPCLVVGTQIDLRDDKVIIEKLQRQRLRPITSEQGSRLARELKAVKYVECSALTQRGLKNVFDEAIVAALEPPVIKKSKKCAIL

B1: GST-tagged Gic2N (amino acids 1–155) (domain or fragment, S. cerevisiae (budding yeast), UniProt Q06648 1-155, looked up)
chain: MTSASITNTGNETMNLPQMRSIWLDEDEEAEKLYGLQAQQFMGSDDEENLGITFINSDKPVLSNKKNIELPPLSPNSHPSCHHRRSNSNSAKSKESSSSSSSANKTNHKKVFLKLNLLKKKLLGAQPDIRGKGISTPFDFQHISHADTRNGFQDE
notes: also called GST-Gic2N; GST-Gic2; source: GST fusion protein, purified and conjugated to glutathione Sepharose
As for B1, the binding result (in test [1]; in the test with His6-Cdc42) was “binds” throughout.
